Reference: patent US20210115143A1 (R PHARM OVERSEAS, published 2021)
Several values for one entry are separate records, joined by “and”; a condition that tells them apart may be missing. Equal values may be shown once.

Experiments:
[1] = biological target: hPD-L1 as used in the binding and blocking tests of Example 4 (human, UniProt Q9NZQ7 19-238, limits assumed); assay: competition with PD-1 for PD-L1, scFv-Fc (FIG. 3)
[2] = biological target: human PD-L1 on primary human cells in the dendritic cell / CD4+ T cell mixed lymphocyte reaction (human, UniProt Q9NZQ7 19-290); assay: cell-based or functional assay
Sequence of human PD-L1 on primary human cells in the dendritic cell / CD4+ T cell mixed lymphocyte reaction (Q9NZQ7 19-290): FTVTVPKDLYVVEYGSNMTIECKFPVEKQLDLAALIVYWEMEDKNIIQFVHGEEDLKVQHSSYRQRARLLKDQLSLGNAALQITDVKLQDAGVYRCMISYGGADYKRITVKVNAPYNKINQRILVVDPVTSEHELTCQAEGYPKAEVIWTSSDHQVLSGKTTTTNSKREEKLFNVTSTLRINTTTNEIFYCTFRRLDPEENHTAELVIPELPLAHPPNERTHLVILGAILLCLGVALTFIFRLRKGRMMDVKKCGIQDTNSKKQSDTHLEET

Sequence of hPD-L1 as used in the binding and blocking tests of Example 4 (Q9NZQ7 19-238 limits assumed): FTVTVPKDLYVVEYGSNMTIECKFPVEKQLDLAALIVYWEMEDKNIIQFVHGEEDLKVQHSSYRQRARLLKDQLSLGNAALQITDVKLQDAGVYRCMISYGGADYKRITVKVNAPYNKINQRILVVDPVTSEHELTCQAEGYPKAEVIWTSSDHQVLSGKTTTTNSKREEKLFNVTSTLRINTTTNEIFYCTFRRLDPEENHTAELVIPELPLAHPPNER

Binder	IC50 [1] [µg/mL]	EC50 of IFN-γ secretion by CD4+ T cells in a dendritic cell-T cell mixed lymphocyte reaction [2]
B60-55 mAb (anti-hPD-L1, human IgG1, kappa) (antibody, V domains shown) VH: QVQLVQSGAEVKKPASSVKVSCTASGGSFSTYAISWVRQAPGQGLEWMGGIIPIFGTTKYAQRFQGRVTITADESTTTAYMELSSLISDDTALYYCTTSRGFNYGWFDYWGQGTLVTVSS VL: EIVMTQSPATLSLSPGERATLSCRASQSVGIHLAWYQQKLGQAPRLLIYGASSRATGIPDRFSGSGSGTDFTLTISRLEPEDFAVYYCQQYGSLPRTFGQGTKVEIK	–	0.189 µg/ml and 1.2 nM
B60-55 anti-hPD-L1 scFv fused to IgG1-Fc (affinity matured) (Fc fusion, not shown: human immunoglobulin gamma1 (IgG1) constant region, UniProt P01857, residues 104-330 (IgG1-Fc)) scFv: QVQLVQSGAEVKKPASSVKVSCTASGGSFSTYAISWVRQAPGQGLEWMGGIIPIFGTTKYAQRFQGRVTITADESTTTAYMELSSLISDDTALYYCTTSRGFNYGWFDYWGQGTLVTVSSGGGGSGGGGSGGGGSEIVMTQSPATLSLSPGERATLSCRASQSVGIHLAWYQQKLGQAPRLLIYGASSRATGIPDRFSGSGSGTDFTLTISRLEPEDFAVYYCQQYGSLPRTFGQGTKVEIK	1.14	–

More lines, now with the values ahead:

IC50 [1] [µg/mL]	EC50 of IFN-γ secretion by CD4+ T cells in a dendritic cell-T cell mixed lymphocyte reaction [2]	Binder
0.837	–	BII61-62 anti-hPD-L1 scFv fused to IgG1-Fc (affinity matured) (Fc fusion, not shown: human immunoglobulin gamma1 (IgG1) constant region, UniProt P01857, residues 104-330 (IgG1-Fc)) scFv: QVQLQQSGPGLVKPSQTLSLTCAISGDSVSSNSASWNWIRQSPSRGLEWLGRTYYRSKWYDDYAVSVKGRISINPDTSKNQFSLQLNSVTPEDTAVYYCARSQGRYFVNYGMDVWGQGTTVTVSSGGGGSGGGGSGGGGSDIRLTQSPSSLSASVGDRITITCRASQSISSYLNWYQQKPGKAPKLLVYGASSLQSGVPSRFSGSGSGTDFTLTISSLQPEDVATYYCQQSYFTPRGITFGPGTKVDIK
–	0.078 µg/ml and 0.5 nM	BII61-62 mAb (anti-hPD-L1, human IgG1, kappa) (antibody, V domains shown) VH: QVQLQQSGPGLVKPSQTLSLTCAISGDSVSSNSASWNWIRQSPSRGLEWLGRTYYRSKWYDDYAVSVKGRISINPDTSKNQFSLQLNSVTPEDTAVYYCARSQGRYFVNYGMDVWGQGTTVTVSS VL: DIRLTQSPSSLSASVGDRITITCRASQSISSYLNWYQQKPGKAPKLLVYGASSLQSGVPSRFSGSGSGTDFTLTISSLQPEDVATYYCQQSYFTPRGITFGPGTKVDIK
